Results taken from article PMC6472337, “L amino acid transporter structure and molecular bases for the asymmetry of substrate interaction” (Nature Communications, 2019).
Numbering of substitutions follows the chain as printed. Names may count otherwise.

What was measured:
AdiC = tested on: AdiC; design: method as in PMID 22304019; conditions: cited from earlier work
BasC wild-type = experiment: [3H]L-alanine transport (influx, efflux, exchange) in BasC proteoliposomes; assay type: biochemical, Carnobacterium sp AT7; conditions: for 10 μM [3H]L-alanine exchange into BasC PLs containing 4 mM of the indicated compound: 4 mM compound inside PLs, n=1-3 and mean
Protocol: BasC-GFP protein was reconstituted in E. coli polar lipids (Sigma-Aldrich, Madrid, Spain), as previously described. Lipids were dried under N2 and suspended in reconstitution buffer (20 mM Tris-Base, 150 mM NaCl, pH 7.4). The suspension was sonicated to clarity and purified BasC protein was added to reach the desired protein to lipid ratio of 1:100 (w:w). To destabilize the liposomes, 1.25% ß-D-octylglucoside was added and the mixture was incubated on ice with occasional agitation for 5 min. DDM and ß-D-octylglucoside were removed by dialysis for 40 h at 4 °C against 100 volumes of dialysis buffer. Proteoliposome (PL) suspensions were frozen in liquid N2 and stored at −80 °C until use.
For uptake experiments, the desired intraliposomal amino acid concentration was added to the PL suspension, which was then subjected to three freeze/thaw cycles. The extraliposomal amino acid content was then removed by ultracentrifugation (100,000 × g for 1 h at 4 °C) and PLs were resuspended to one-third of the initial volume with reconstitution buffer. Amino acid uptake assays were initiated after mixing 10 μl of cold PLs with 180 μl of transport buffer (20 mM Tris-Base, 150 mM NaCl, pH 7.4 plus 0.5–1 µCi/180 µl of radiolabeled L-amino acid (Perkin Elmer, Waltham, MA)) supplemented with the unlabeled amino acid to the desired concentration. This mixture was then incubated at room temperature for the indicated periods. […] Filters were then washed twice with 2 ml of stop buffer and dried, and the trapped radioactivity was counted. Transport measured in PLs containing no amino acid was subtracted from each data point to calculate the net exchange. […] BasC protein in PLs was determined by Coomassie blue staining in SDS-PAGE gels compared with known amounts of BasC in DDM micelles, determined by BCA assay (Pierce, Rockford, IL) and loaded in the same gel.

[1] = substrate: C[C@H](N)C(=O)O; experiment: cells, lysate or membranes; conditions: other: L-alanine uptake, pH 7.4, 37.0 °C
[2] = biological target: T1, bacterial alanine-serine-cysteine exchanger (BasC), wild-type, purified for crystallography (Carnobacterium sp. AT7); experiment: SPR; Biacore T-100; nanobody captured (around 200 RU) on a CM5 chip coated with anti-His antibody; BasC flowed at 500–2.5 nM; running buffer phosphate buffered saline, 0.17% DM; conditions: both partners purified
T1 construct: BasC, bacterial alanine-serine-cysteine exchanger, a prokaryotic L-type amino acid transporter (LAT); In the transport assays (functional rows) BasC stood as uncleaved BasC-GFP reconstituted in E. coli polar lipid proteoliposomes; also called WT; source: E. coli BL21 Star (DE3), purified in DM (Ni2+-NTA, on-column HRV-3C cleavage); not shown: GFP, C-terminal, cleaved
T1 chain: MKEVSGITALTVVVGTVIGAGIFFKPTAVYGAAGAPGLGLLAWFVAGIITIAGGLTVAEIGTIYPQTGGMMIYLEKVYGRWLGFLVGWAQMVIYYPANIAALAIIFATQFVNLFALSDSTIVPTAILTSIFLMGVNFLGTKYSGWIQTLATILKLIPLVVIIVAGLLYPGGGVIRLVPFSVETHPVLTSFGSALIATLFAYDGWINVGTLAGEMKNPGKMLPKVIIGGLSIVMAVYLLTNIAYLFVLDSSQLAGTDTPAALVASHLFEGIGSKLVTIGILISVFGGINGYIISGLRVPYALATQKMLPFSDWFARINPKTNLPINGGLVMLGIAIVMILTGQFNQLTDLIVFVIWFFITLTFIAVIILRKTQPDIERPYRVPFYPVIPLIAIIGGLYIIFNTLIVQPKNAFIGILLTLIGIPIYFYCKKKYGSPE

BasC = experiment: Surface plasmon resonance of Nb74-BasC interaction; assay type: binding, Carnobacterium sp AT7; conditions: read-out: KD (affinity of Nb74 for BasC)
Protocol: Surface plasmon resonance (Biacore T-100, GE Healthcare, Chicago, IL) was used to screen 29 Nbs (one from each family) for binding with BasC, purified as for crystallography. […] BasC was assayed at 500–2.5 nM in running buffer. […] The BasC-Nb74 complex rendered the best results initially and consequently crystals were optimized.

[3] = biological target: T1, bacterial alanine-serine-cysteine …; experiment: crystal structure; BasC incubated with Nb74 at 1:1.2, complex purified by SEC in 0.17% DM; sitting-drop vapor diffusion at 4 °C, 27–29% PEG 400, 0.1 M ammonium acetate pH 8; apo (2.9 Å) and with 100 mM 2-AIB (3.4 Å); conditions: both partners purified
[4] = 5 µM Nb74 in medium, exchange with 4 mM L-alanine, NT = 100, n=1-6 and mean

For `N=C(N)NCCC[C@H](N)C(=O)O` [arginine], the “intracellular apparent Km value compared to the extracellular one” value (AdiC) is listed as “two-fold higher”.

With `CCN` [Ethylamine, ethylamine] the “10 μM [3H]L-alanine exchange into BasC PLs containing 4 mM of the indicated compound” value (BasC wild-type; listed as ethylamine) was “not significant”.

For `CC(C)(N)C(=O)O` [2-AIB, 2-aminoisobutyric acid], the Km (BasC wild-type; 2-AIB as intraliposomal substrate, read-out: intracellular Km) was 34.5 ± 10 mM and the “intracellular Km relative to L-alanine Km” value (BasC wild-type; higher than L-alanine Km) was ~ 10 fold.

In the case of `NCCCCN=C(N)N` [agmatine], the “intracellular apparent Km value compared to the extracellular one” value (AdiC) is listed as “two-fold higher”.

For `CC(=O)O` [Acetate], the “10 μM [3H]L-alanine exchange into BasC PLs containing 4 mM of the indicated compound” value (BasC wild-type) was “not significant”.

For `NCCCC(=O)O` [GABA, γ-aminobutyrate], the “10 μM [3H]L-alanine exchange into BasC PLs containing 4 mM of the indicated compound” value (BasC wild-type) was “not a substrate”.

B1: human Asc-1 (hAsc-1) wild-type (Homo sapiens) (protein)
chain: MAGHTQQPSGRGNPRPAPSPSPVPGTVPGASERVALKKEIGLLSACTIIIGNIIGSGIFISPKGVLEHSGSVGLALFVWVLGGGVTALGSLCYAELGVAIPKSGGDYAYVTEIFGGLAGFLLLWSAVLIMYPTSLAVISMTFSNYVLQPVFPNCIPPTTASRVLSMACLMLLTWVNSSSVRWATRIQDMFTGGKLLALSLIIGVGLLQIFQGHFEELRPSNAFAFWMTPSVGHLALAFLQGSFAFSGWNFLNYVTEEMVDARKNLPRAIFISIPLVTFVYTFTNIAYFTAMSPQELLSSNAVAVTFGEKLLGYFSWVMPVSVALSTFGGINGYLFTYSRLCFSGAREGHLPSLLAMIHVRHCTPIPALLVCCGATAVIMLVGDTYTLINYVSFINYLCYGVTILGLLLLRWRRPALHRPIKVNLLIPVAYLVFWAFLLVFSFISEPMVCGVGVIIILTGVPIFFLGVFWRSKPKCVHRLTESMTHWGQELCFVVYPQDAPEEEENGPCPPSLLPATDKPSKPQ
For B1, the Km ([1]; wild-type hAsc-1, HeLa cells) was 0.0675 ± 0.0042 mM and the Vmax ([1]; wild-type hAsc-1, HeLa cells) was 1703 ± 425 pmols µg protein^−1 min^−1.

B2: hAsc-1 K194A mutant (Homo sapiens; K194A) (protein)
chain: B1 chain with K194A
For B2, the Km ([1]; K194A hAsc-1, HeLa cells) was 0.825 ± 0.053 mM and the Vmax ([1]; K194A hAsc-1, HeLa cells) was 152 ± 16 pmols µg protein^−1 min^−1.

B3: anti-BasC nanobody 74 (Nb74) (VHH)
VHH: QVQLVESGGGVVQAGGSLRLSCAASGRTFSSRAMGWFRQAPGEGREFVATISWSGSYTEYADSVKGRVTISRDNAKNTVYLQMNSLKPGDTAVYHCAAKNGGAASNYPNDYVYWGQGTQVTVSS
notes: nanobody from a llama immunised with BasC proteoliposomes, selected by phage display (vector pMESy4); Captured by its His tag on an anti-His antibody in the SPR experiment
In the case of B3, the Kd [2] is reported as 3.9 ± 1.4 nM, the “Efflux of 10 µM [3H]L-alanine, normalized to non-treated PLs” value (BasC wild-type; [4]) is reported as 9.14 and the “Influx of 10 µM [3H]L-alanine, normalized to non-treated PLs” value (BasC wild-type; [4]) is reported as 105.77. The IC50 (BasC wild-type; read-out: IC50 of 10 µM [3H]L-alanine efflux, efflux in exchange with 4 mM L-alanine, Nb74 in PL medium) was ~300 nM, the Kd (BasC) was 3.87 nM and the “stoichiometry N” value [3] was 1.
